In test [1] the target is full-length GST-Rfa1 (S. cerevisiae) (UniProt P22336). The test is described as follows: MST.
In test [2] the target is full-length GST-yKu70 (S. cerevisiae) (UniProt P32807). The test is described as follows: MST.

In doi:10.1101/2023.10.18.562911 one finds Kd data, which are given here for three substances.

As usually defined, the pKd is the negative decadic logarithm of the Kd, by convention in mol/L. Read a low pKd as a large Kd.

pKd: −log10 of the molar value.

UniProt P32807, sequence (P32807 whole entry): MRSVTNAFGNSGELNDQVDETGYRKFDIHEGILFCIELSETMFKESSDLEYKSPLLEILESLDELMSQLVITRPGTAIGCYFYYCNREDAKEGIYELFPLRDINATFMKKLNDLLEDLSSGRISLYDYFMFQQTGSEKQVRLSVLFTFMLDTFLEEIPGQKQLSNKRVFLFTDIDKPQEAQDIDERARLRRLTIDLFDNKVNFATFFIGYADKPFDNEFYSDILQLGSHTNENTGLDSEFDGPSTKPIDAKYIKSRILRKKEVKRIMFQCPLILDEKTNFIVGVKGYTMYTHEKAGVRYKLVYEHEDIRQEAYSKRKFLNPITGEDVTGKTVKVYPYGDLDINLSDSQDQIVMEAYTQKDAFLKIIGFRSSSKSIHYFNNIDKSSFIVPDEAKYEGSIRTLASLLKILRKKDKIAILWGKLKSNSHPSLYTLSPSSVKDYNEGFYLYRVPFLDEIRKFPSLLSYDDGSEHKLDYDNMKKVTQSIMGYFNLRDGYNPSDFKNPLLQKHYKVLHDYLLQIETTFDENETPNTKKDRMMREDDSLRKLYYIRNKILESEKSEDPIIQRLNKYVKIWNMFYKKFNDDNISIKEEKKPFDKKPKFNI
UniProt P22336, sequence (P22336 whole entry): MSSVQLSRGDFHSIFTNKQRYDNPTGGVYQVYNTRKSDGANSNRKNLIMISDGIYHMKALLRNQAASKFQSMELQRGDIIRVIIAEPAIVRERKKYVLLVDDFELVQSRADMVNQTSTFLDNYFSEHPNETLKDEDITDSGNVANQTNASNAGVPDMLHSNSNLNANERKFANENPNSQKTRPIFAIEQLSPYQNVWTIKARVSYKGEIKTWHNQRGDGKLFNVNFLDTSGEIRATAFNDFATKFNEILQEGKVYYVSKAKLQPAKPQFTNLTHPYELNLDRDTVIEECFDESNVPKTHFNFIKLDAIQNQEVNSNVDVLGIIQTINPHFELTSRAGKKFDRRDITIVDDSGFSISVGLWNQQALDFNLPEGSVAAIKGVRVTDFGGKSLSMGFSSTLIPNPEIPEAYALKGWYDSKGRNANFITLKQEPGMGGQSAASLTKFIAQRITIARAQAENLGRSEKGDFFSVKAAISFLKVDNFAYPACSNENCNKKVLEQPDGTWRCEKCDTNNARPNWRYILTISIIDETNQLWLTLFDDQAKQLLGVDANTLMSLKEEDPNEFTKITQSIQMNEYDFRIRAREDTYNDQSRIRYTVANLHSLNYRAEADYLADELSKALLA

Consider “native chicken erythrocyte nucleosomes (complex)”, for which the pKd in test [1] was 6.00; in test [2] it was 5.92.
For “yeast Y149F^me3 nucleosomes (from UniProt P61830 1-136) (complex)”, the pKd in test [1] is 6.00.
In test [2], “yeast Y236F^me2 nucleosomes (from UniProt P61830 1-136) (complex)” showed a pKd of 5.92.
